Results from doi:10.1101/591263.
pKd: −log10 of the molar value.

System: dSpCas9-GFP (Streptococcus pyogenes)
Assay: MST
Conditions: MST: 20 mM HEPES pH 7.5, 150 mM KCl, 1 mM DTT, 10 mM MgCl2

Q: With “VEGFA3 off-target (30 bp) with VEGFA3 sgRNA” as the substance, how does the pKd read?
A: 6.85

Q: With EMX1 off-target (30 bp) with EMX1 sgRNA as the substance, how does the pKd read?
A: 7.57

Q: With EMX1 target (30 bp) with EMX1 sgRNA as the substance, how does the pKd read?
A: 7.96

Q: With VEGFA3 target (30 bp) with VEGFA3 sgRNA as the substance, how does the pKd read?
A: 7.30
